Assay results reported in patent US20260069689A1 (Regeneron, published 2026).

What was measured:
[1] = target: T1, SARS-CoV2 Spike ecto foldon Trimer expressed with a C-terminal myc-myc-hexahistidine (SARS-CoV-2, UniProt P0DTC2 14-1213); test: SPR Biacore, mAb captured by anti-hFc, 37C
T1 construct: extracellular domain

[2] = target: T1, SARS-CoV2 Spike ecto foldon Trimer …; test: SPR Biacore, mAb captured by anti-hFc, 25C

| Binder | Kd [1] [nM] | koff [1] [s⁻¹] | kon [1] [M⁻¹ s⁻¹] | t½ [1] [h] | Kd [2] [nM] | koff [2] [s⁻¹] | kon [2] [M⁻¹ s⁻¹] | t½ [2] [h] |
| --- | --- | --- | --- | --- | --- | --- | --- | --- |
| mAb14256 (antibody, V domains shown) VH: QVQLQESGPGLVKPSETLSLTCTVSGGSISSHYWSWIRQPPGKGLEWIGYIYYSGSSNYNPSLKSRVTISVDTSKNQFSLKLNSVTAADTAVYYCARHYDILTGFDWFDPWGQGTLVTVSS VL: QSVLTQPPSVSGAPGQRVTISCTGSSSNIGTHYDVHWYQQLPGTAPKLLIYGNSNRPSGVPDRFSGSKSGTSASLAITGLQAEDEADYYCQSFDNSLTAPYVFGTGTKVTVLG | 0.304 | 0.000242 | 796000 | 0.795 | 0.129 | 0.000189 | 1.47e+06 | 1.02 |
| mAb14285 (antibody, V domains shown) VH: QVQLVQSGAEVKKPGASVKVSCKASGYTFTGYFIHWVRQAPGQGLEWMGWISPISGGTNYAQKFQGRVTVTRDTSITTAYMELSRLTSDDTAVYHCAREGGTWKGDFDYWGQGTLVTVSS VL: QSALTQPASVSGSPGQSITISCTGTSSDVESYNLVSWYQQHPGKAPKLMIYEGSKRPSGVSNRFSGSKSGNTASLTISGLQAEDEADYYCSSYAGSSTWVFGGGTKLTVLG | 0.0359 | 4.18e-05 | 1.16e+06 | 4.61 | 0.017 | 3.98e-05 | 2.34e+06 | 4.84 |
| mAb14280 (antibody, V domains shown) VH: QVQLVQSGAEVKKPGASVRVSCKASGYTFTGNYIHWVRQAPGQGLEWMAWINPNSGGKNYAQKFQGRVTLTRDTSVNTAYMELSRLRSDDTAMYYCARDVNYNILTGPGGLWGQGTLVTVSS VL: QSALTQPPSASGSPGQSVTISCTGTSSDVGGYNFVSWYQQHPGKAPKLMIYEVSKRPSGVPDRFSGSKSGNTASLTVSGLQAEDEADYYCSSYAGSNNFVFGTGTKVTVLG | 0.029 | 2.86e-05 | 985000 | 6.73 | 0.0136 | 2.69e-05 | 1.99e+06 | 7.14 |
| mAb14234 (antibody, V domains shown) VH: QVQLVESGGGVVQPGRSLRLSCAASGFTFSSYGIHWVRQAPGKGLEWVAIIWYDGSEKYYADSVKGRFTISRDNSKNTLFLQMNSLEAEDTAVYYCARGPDLLTGYYNYFYYGMDVWGQGTTVTVSS VL: QSVLTQPPSVSGAPGQRVTISCTGSSSNIGIGYDVHWYQQLPGTVPKLLIYGNTNRPSGVPDRFSGSKSGTSASLAITGLQAEDEADYYCQSYDSSLSSYVFGTGTKVTVLG | 0.102 | 7.16e-05 | 699000 | 2.69 | 0.0775 | 5.48e-05 | 707000 | 3.51 |
| mAb14232 (antibody, V domains shown) VH: QITLKESGPTLVKPTQTLTLTCTFSGFSLSASGVGVGWIRQPPGKALEWLALIYWDDDKRYSPSLKSRLTITKDTSKNQVVLTMTNMDPVDTATYYCAQHKVATIFDYWGQGTLVTVSS VL: QSALTQPPSASGSPGQSVTISCTATSSDVGNYNYVSWYQQHPGKAPKLMIYEVTKRPSGVPDRFSGSKSGNTASLTVSGLQAEDEADYYCSSYAGSWGVFGGGTKLTVLG | 0.177 | 0.000133 | 751000 | 1.45 | 0.195 | 0.000149 | 763000 | 1.29 |
| mAb14292 (antibody, V domains shown) VH: EVQLVESGGGLVQPGGSLRLSCVASGFAFSTYEMNWVRQAPGKGLEWVSYISSSGSTIYYADSVKGRLTISRDNVKNSLYLQMNSLRVEDTAIYYCARDAIRNNDILTDPATFDPWGQGTLVTVSS VL: not shown | 11.5 | 0.00682 | 592000 | 0.0283 | 7.21 | 0.00421 | 584000 | 0.045 |
| mAb15156 (antibody, V domains shown) VH: QLQLQESGPGLVKSSETLSLTCTVSASITGSTYYWGWIRQPPGKGLEWIGSIYYSGTTYYKASLKSRVTISVDTSKNQFSLKLTSVTVADTAVYYCVSHLLGNYHKYGMDVWGQGTTVTVSS VL: not shown | 0.112 | 0.000212 | 1.89e+06 | 0.908 | 0.193 | 6.61e-05 | 342000 | 2.91 |
